Assay results from the MegaScale stability set (Tsuboyama et al. 2023).

B1: HEEH_KT_rd6_3546 (parent)
chain: SEEDKEREHWERLNRDFELRVLDTTFIAHHAEEVIKLLRWLEK
B2: EEHEE_rd4_0469 (parent)
chain: ITIHVNGVTYHFDNPEEAEKFAQKMAKTYQLKMEIHNGEFHME

Variants of: B1
Assay: folding stability dG (cDNA display proteolysis); higher = more stable
Conditions: PBS, room temperature

| Variant | folding stability dG [kcal/mol] |
| --- | --- |
| SEEDKEREHWERLNRDFELRVLDTTFIAHHAEEVIKLLRWLEV | 1.56 |
| SEEDKEREHWERLNRDFELRVLDTTFIAHHAEEVIKLLRWLEW | 2.03 |
| SEEDKEREHWERLNRDFELRVLDTTFIAHHAEEVIKLLRWLEY | 1.8 |

Variants of: B2
Assay: as above
Conditions: PBS, room temperature

| Variant | folding stability dG [kcal/mol] |
| --- | --- |
| ATIHVNGVTYHFDNPEEAEKFAQKMAKTYQLKMEIHNGEFHME | 0.749 |
| CTIHVNGVTYHFDNPEEAEKFAQKMAKTYQLKMEIHNGEFHME | 1.65 |
| DTIHVNGVTYHFDNPEEAEKFAQKMAKTYQLKMEIHNGEFHME | 0.302 |
| ETIHVNGVTYHFDNPEEAEKFAQKMAKTYQLKMEIHNGEFHME | 0.225 |
| FTIHVNGVTYHFDNPEEAEKFAQKMAKTYQLKMEIHNGEFHME | 1.08 |
| GTIHVNGVTYHFDNPEEAEKFAQKMAKTYQLKMEIHNGEFHME | 0.443 |
| HTIHVNGVTYHFDNPEEAEKFAQKMAKTYQLKMEIHNGEFHME | 0.725 |
| KTIHVNGVTYHFDNPEEAEKFAQKMAKTYQLKMEIHNGEFHME | 0.846 |
| LTIHVNGVTYHFDNPEEAEKFAQKMAKTYQLKMEIHNGEFHME | 0.959 |
| MTIHVNGVTYHFDNPEEAEKFAQKMAKTYQLKMEIHNGEFHME | 0.992 |
| NTIHVNGVTYHFDNPEEAEKFAQKMAKTYQLKMEIHNGEFHME | 0.57 |
| PTIHVNGVTYHFDNPEEAEKFAQKMAKTYQLKMEIHNGEFHME | 0.64 |
| QTIHVNGVTYHFDNPEEAEKFAQKMAKTYQLKMEIHNGEFHME | 0.734 |
| RTIHVNGVTYHFDNPEEAEKFAQKMAKTYQLKMEIHNGEFHME | 1.01 |
| STIHVNGVTYHFDNPEEAEKFAQKMAKTYQLKMEIHNGEFHME | 0.683 |
| TTIHVNGVTYHFDNPEEAEKFAQKMAKTYQLKMEIHNGEFHME | 0.826 |
| VTIHVNGVTYHFDNPEEAEKFAQKMAKTYQLKMEIHNGEFHME | 1.02 |
| WTIHVNGVTYHFDNPEEAEKFAQKMAKTYQLKMEIHNGEFHME | 1.32 |
| YTIHVNGVTYHFDNPEEAEKFAQKMAKTYQLKMEIHNGEFHME | 1.16 |

| Variant | folding stability dG [kcal/mol] |
| --- | --- |
| IAIHVNGVTYHFDNPEEAEKFAQKMAKTYQLKMEIHNGEFHME | 0.989 |
| ICIHVNGVTYHFDNPEEAEKFAQKMAKTYQLKMEIHNGEFHME | 1.72 |
| IDIHVNGVTYHFDNPEEAEKFAQKMAKTYQLKMEIHNGEFHME | 1.13 |
| IEIHVNGVTYHFDNPEEAEKFAQKMAKTYQLKMEIHNGEFHME | 0.797 |
| IFIHVNGVTYHFDNPEEAEKFAQKMAKTYQLKMEIHNGEFHME | 1.42 |
| IGIHVNGVTYHFDNPEEAEKFAQKMAKTYQLKMEIHNGEFHME | 0.665 |
| IHIHVNGVTYHFDNPEEAEKFAQKMAKTYQLKMEIHNGEFHME | 1.51 |
| IIIHVNGVTYHFDNPEEAEKFAQKMAKTYQLKMEIHNGEFHME | 1.24 |
| IKIHVNGVTYHFDNPEEAEKFAQKMAKTYQLKMEIHNGEFHME | 1.31 |
| ILIHVNGVTYHFDNPEEAEKFAQKMAKTYQLKMEIHNGEFHME | 1.25 |
| IMIHVNGVTYHFDNPEEAEKFAQKMAKTYQLKMEIHNGEFHME | 1.01 |
| INIHVNGVTYHFDNPEEAEKFAQKMAKTYQLKMEIHNGEFHME | 1.17 |
| IPIHVNGVTYHFDNPEEAEKFAQKMAKTYQLKMEIHNGEFHME | 0.663 |
| IQIHVNGVTYHFDNPEEAEKFAQKMAKTYQLKMEIHNGEFHME | 0.972 |
| IRIHVNGVTYHFDNPEEAEKFAQKMAKTYQLKMEIHNGEFHME | 1.46 |
| ISIHVNGVTYHFDNPEEAEKFAQKMAKTYQLKMEIHNGEFHME | 1.08 |
| IVIHVNGVTYHFDNPEEAEKFAQKMAKTYQLKMEIHNGEFHME | 1.13 |
| IWIHVNGVTYHFDNPEEAEKFAQKMAKTYQLKMEIHNGEFHME | 1.47 |
| IYIHVNGVTYHFDNPEEAEKFAQKMAKTYQLKMEIHNGEFHME | 1.36 |

| Variant | folding stability dG [kcal/mol] |
| --- | --- |
| ITAHVNGVTYHFDNPEEAEKFAQKMAKTYQLKMEIHNGEFHME | 0.525 |
| ITCHVNGVTYHFDNPEEAEKFAQKMAKTYQLKMEIHNGEFHME | 1.55 |
| ITDHVNGVTYHFDNPEEAEKFAQKMAKTYQLKMEIHNGEFHME | 0.068 |
| ITEHVNGVTYHFDNPEEAEKFAQKMAKTYQLKMEIHNGEFHME | -0.263 |
| ITFHVNGVTYHFDNPEEAEKFAQKMAKTYQLKMEIHNGEFHME | 0.925 |
| ITGHVNGVTYHFDNPEEAEKFAQKMAKTYQLKMEIHNGEFHME | 0.58 |
| ITHHVNGVTYHFDNPEEAEKFAQKMAKTYQLKMEIHNGEFHME | 0.159 |
| ITKHVNGVTYHFDNPEEAEKFAQKMAKTYQLKMEIHNGEFHME | 0.19 |
| ITLHVNGVTYHFDNPEEAEKFAQKMAKTYQLKMEIHNGEFHME | 0.868 |
| ITMHVNGVTYHFDNPEEAEKFAQKMAKTYQLKMEIHNGEFHME | 0.706 |
| ITNHVNGVTYHFDNPEEAEKFAQKMAKTYQLKMEIHNGEFHME | -0.377 |
| ITPHVNGVTYHFDNPEEAEKFAQKMAKTYQLKMEIHNGEFHME | -0.854 |
| ITQHVNGVTYHFDNPEEAEKFAQKMAKTYQLKMEIHNGEFHME | -0.059 |
| ITRHVNGVTYHFDNPEEAEKFAQKMAKTYQLKMEIHNGEFHME | 0.201 |
| ITSHVNGVTYHFDNPEEAEKFAQKMAKTYQLKMEIHNGEFHME | -0.094 |
| ITTHVNGVTYHFDNPEEAEKFAQKMAKTYQLKMEIHNGEFHME | 0.127 |
| ITVHVNGVTYHFDNPEEAEKFAQKMAKTYQLKMEIHNGEFHME | 1.35 |
| ITWHVNGVTYHFDNPEEAEKFAQKMAKTYQLKMEIHNGEFHME | 0.819 |
